Assay results reported in patent US20150079612A1.

Columns and labels:
Hemoglobin [1] = experiment: competitive ECL 5-FU assay, Bi-61C6 beads and TAG Plus 1-5C-5-FU-BSA, hemoglobin 10 mg/mL in plasma without 5-FU
Hemoglobin [2] = experiment: competitive ECL 5-FU assay, Bi-61C6 beads and TAG Plus 1-5C-5-FU-BSA, hemoglobin 10 mg/mL in plasma with 1000 ng/mL spiked 5-FU
Hemoglobin [3] = experiment: competitive ECL 5-FU assay, Bi-61C6 beads and TAG Plus 1-5C-5-FU-BSA, hemoglobin 10 mg/mL in plasma with 75 ng/mL spiked 5-FU

B1: monoclonal antibody 61C6 (antibody, mouse IgG2b, kappa, V domains shown)
VH: QIQLVQSGPELKKPGETVTISCKASGYTLTNYGMNWVKQAPGKGLKWMGWINTNSGEPTYVEEFKGRFAFSLETSVSTVYLQISDLKHEDTATYFCARWGPHFNAYGWFAYWGQGTLVTVSA
VL: YIQMTQTASSLSASLGDRVTISCRASQDIWNYLNWYQQKPDGTIKLLIYYKSRLHSGVPSRFSGSGSGIDFSLTISNLEQEDFATYFCQQGHTLPWTFGGGSKLEIKR
modifications: biotinylated on primary amines with EZ-Link Sulfo-NHS-LC-Biotin (positions not stated)
% Cross-React (Hemoglobin [1]): 0% | % Cross-React (Hemoglobin [2]): -0.1% | % Cross-React (Hemoglobin [3]): 0%
